Among the data in paper PMC3336205, “The generation and evaluation of two panels of epitope-matched mouse IgG1, IgG2a, IgG2b and IgG3 antibodies specific for Plasmodium falciparum and Plasmodium yoelii merozoite surface protein 1–19 (MSP1_(19))” (Experimental Parasitology, 2012) are binding result, Ka and Kd values, retold here.

The target of experiment [1] is T1, recombinant PyMSP1_(19)-GST (Plasmodium yoelii yoelii (strain not …, UniProt P13828)).
T1 construct: merozoite surface protein 1 (MSP1), Plasmodium yoelii, C-terminal 19-kDa region (MSP1_19), homologous to PfMSP1_19; also called P. yoelii MSP1_(19); source: recombinant, purified (Lewis, 1989)
T1 sequence (P13828 whole entry, looked up): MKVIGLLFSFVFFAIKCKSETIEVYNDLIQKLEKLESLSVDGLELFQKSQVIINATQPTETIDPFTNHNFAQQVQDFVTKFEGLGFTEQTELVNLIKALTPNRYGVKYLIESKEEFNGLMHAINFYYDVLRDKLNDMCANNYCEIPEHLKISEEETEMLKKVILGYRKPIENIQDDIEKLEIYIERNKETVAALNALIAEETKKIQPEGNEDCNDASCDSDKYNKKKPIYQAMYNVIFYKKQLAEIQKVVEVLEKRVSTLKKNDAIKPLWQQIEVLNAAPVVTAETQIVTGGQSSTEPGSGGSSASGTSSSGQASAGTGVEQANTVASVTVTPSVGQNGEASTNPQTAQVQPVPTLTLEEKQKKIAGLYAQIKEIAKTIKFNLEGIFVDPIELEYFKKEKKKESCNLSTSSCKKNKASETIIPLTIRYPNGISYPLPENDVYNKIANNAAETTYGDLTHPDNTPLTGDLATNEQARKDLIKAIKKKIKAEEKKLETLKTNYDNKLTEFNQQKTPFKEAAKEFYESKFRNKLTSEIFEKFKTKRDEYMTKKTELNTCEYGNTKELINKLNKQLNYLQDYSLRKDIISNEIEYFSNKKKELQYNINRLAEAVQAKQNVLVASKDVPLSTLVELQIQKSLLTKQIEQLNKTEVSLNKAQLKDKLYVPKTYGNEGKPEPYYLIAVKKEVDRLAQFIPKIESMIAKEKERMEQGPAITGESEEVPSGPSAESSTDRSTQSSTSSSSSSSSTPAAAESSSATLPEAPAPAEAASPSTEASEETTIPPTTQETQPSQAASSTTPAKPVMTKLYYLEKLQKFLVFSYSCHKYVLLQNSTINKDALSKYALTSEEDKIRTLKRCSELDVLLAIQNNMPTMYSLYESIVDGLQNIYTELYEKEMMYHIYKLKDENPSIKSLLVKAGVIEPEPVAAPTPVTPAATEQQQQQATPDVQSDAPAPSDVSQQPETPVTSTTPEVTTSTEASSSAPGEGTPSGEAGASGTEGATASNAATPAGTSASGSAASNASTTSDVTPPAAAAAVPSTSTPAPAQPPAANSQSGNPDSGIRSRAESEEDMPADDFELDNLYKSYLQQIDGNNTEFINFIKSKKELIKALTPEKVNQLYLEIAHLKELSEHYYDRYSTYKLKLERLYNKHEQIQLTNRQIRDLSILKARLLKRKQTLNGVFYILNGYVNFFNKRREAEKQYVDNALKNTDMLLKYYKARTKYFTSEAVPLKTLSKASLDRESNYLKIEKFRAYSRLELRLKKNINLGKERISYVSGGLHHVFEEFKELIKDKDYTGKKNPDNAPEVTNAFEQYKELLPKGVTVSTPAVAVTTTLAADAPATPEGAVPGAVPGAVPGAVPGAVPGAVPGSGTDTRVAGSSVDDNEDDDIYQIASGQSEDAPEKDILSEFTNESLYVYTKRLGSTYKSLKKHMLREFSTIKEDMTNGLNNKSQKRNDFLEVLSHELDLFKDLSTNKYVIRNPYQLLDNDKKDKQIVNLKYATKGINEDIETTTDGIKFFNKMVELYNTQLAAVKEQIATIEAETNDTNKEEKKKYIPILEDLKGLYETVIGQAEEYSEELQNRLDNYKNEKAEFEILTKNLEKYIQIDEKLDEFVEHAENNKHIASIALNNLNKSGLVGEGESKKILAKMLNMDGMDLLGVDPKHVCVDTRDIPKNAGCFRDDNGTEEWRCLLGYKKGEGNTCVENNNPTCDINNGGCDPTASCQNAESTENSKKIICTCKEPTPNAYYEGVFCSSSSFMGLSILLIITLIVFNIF
The experiment can be described thus: ELISA; five micrograms of recombinant purified antigen (PfMSP1_19-GST or PyMSP1_19-GST) coated; culture supernatant of secreting clones; detected with HRP anti-mouse IgG Fc-specific or anti-mouse kappa light chain secondary antibodies; read at 450 nm. The note with it: one partner purified.

For experiment [2], the target named is T2, recombinant PfMSP1_(19)-GST (Plasmodium falciparum, strain not …, UniProt P04933).
T2 construct: merozoite surface protein 1 (MSP1), Plasmodium falciparum, C-terminal 19-kDa region (MSP1_19); also called C-terminal 19-kDa region of Plasmodium falciparum merozoite surface protein 1; source: recombinant, purified (Burghaus and Holder, 1994)
The experiment can be described thus: SPR; BIAcore X; PfMSP1_19-GST (50 μg/ml) amine-coupled to a CM5 chip; purified IgGs injected at 2, 1, 0.5, 0.25 and 0.125 μM, 50 μL at 10 μL/min; control Ag in flow cell 2. The note with it: both partners purified.

B1: mouse IgG1-B10 (PyMSP1_(19)-specific recombinant mouse IgG1) (antibody, V domains shown)
VH: QVQLQQSGPELVKPGASVKVSCKASGYAFTSYNMYWVKQSHGKSLEWIGYIDPYNGGTSYNQKLKGKATLTVDKSSSTAYIHLNSLTSEDSAVYYCTIHYYGYGGFAYWGQGTTVTSS
VL: DIELTQSTAIMSASPGEKVTMTCSASSSVRYMYWYQQKPGSSPRLLIYDTSKLASGVPVRFSGSGSGTSYSLAISRMEAEDAASYYCQQWSSYPPTLGGGTKLEIK
notes: VH of B10 (anti-PyMSP1_19), from pB10-VH/5; mouse IgG1 heavy-chain constant region, amplified from BALB/c genomic DNA; VL of B10, from pB10-VL/10; mouse kappa light chain constant region, amplified from BALB/c genomic DNA; Plasmids pVH-B10-mIgG1 and pVL-B10-mouse kappa; source: HEK-293T, stably transfected; culture supernatant
For the molecule B1, the binding result in experiment [1] is recorded as “binds”.

B2: mouse IgG3-B10 (PyMSP1_(19)-specific recombinant mouse IgG3) (antibody, V domains shown)
VH: B1 VH
VL: B1 VL
notes: VH of B10 (anti-PyMSP1_19), from pB10-VH/5; mouse IgG3 heavy-chain constant region, amplified from genomic DNA; VL of B10, from pB10-VL/10; mouse kappa light chain constant region, amplified from BALB/c genomic DNA; Plasmids pVH-B10-mIgG3 and pVL-B10-mouse kappa; source: CHO-K1, stably transfected; culture supernatant
As for B2, the binding result in experiment [1] is “binds”.

B3: mouse IgG2a-B10 (PyMSP1_(19)-specific recombinant mouse IgG2a) (antibody, V domains shown)
VH: B1 VH
VL: B1 VL
notes: VH of B10 (anti-PyMSP1_19), from pB10-VH/5; mouse IgG2a heavy-chain constant region, amplified from genomic DNA; VL of B10, from pB10-VL/10; mouse kappa light chain constant region, amplified from BALB/c genomic DNA; Plasmids pVH-B10-mIgG2a and pVL-B10-mouse kappa; source: CHO-K1, stably transfected; culture supernatant
As to B3, the binding result in experiment [1] was “binds”.

B4: mouse IgG2b-B10 (PyMSP1_(19)-specific recombinant mouse IgG2b) (antibody, V domains shown)
VH: B1 VH
VL: B1 VL
notes: VH of B10 (anti-PyMSP1_19), from pB10-VH/5; mouse IgG2b heavy-chain constant region, amplified from genomic DNA; VL of B10, from pB10-VL/10; mouse kappa light chain constant region, amplified from BALB/c genomic DNA; Plasmids pVH-B10-mIgG2b and pVL-B10-mouse kappa; source: CHO-K1, stably transfected; culture supernatant
Regarding B4, in experiment [1], the binding result was “binds”.

B5: mouse IgG1-C1 (PfMSP1_(19)-specific recombinant mouse IgG1) (antibody, V domains shown)
VH: EVQLVQSGPEVKKPGASVKVSCKTSGYSFTSYDINWVRQAPGQGLEWMGRISPYNGKTDYTQTLRGRVTMSTDTSTTTVYLELRSLKSDDTAVYYCAREGVWFAELLSWGEGTLVTVSS
VL: DIVMTQTPGTLSLSPGERATLSCRASQSVSGNYLAWYQQKPGQAPRLLIHGSSDRAAGTPDRFSGRGSGTDFTLTISRLEPEDFAVYYCQQYCSSPFTFGPGTKVEIK
notes: VH of C1 (anti-PfMSP1_19), as the VH of m7; mouse IgG1 heavy-chain constant region, amplified from BALB/c genomic DNA; VL of C1, as the VL of m7; mouse kappa light chain constant region, amplified from BALB/c genomic DNA; Plasmids pVH-C1-mIgG1 and pVL-C1-mouse kappa; also called mIgG1-C1; murine IgG1-C1; source: HEK-293T, stably transfected; culture supernatant, and purified (protein G-Sepharose)
Turning to B5, in experiment [2], the Ka worked out at 4.48e+07 M⁻¹ and the Kd was determined as 23 nM.

B6: human IgG1-C1 (JS1), parental human IgG1 antibody (antibody, V domains shown)
VH: B5 VH
VL: B5 VL
notes: VH of C1 (anti-PfMSP1_19); human IgG1 heavy-chain constant region; VL of C1; light-chain constant region of pVKExpress C1; IgG1; also called hIgG1-C1; (h)IgG1-C1
As to B6, in experiment [2], the Ka worked out at 3.94e+07 M⁻¹ and the Kd was determined as 23 nM.

B7: mouse IgG3-C1 (PfMSP1_(19)-specific recombinant mouse IgG3) (antibody, V domains shown)
VH: B5 VH
VL: B5 VL
notes: VH of C1 (anti-PfMSP1_19), as the VH of m7; mouse IgG3 heavy-chain constant region, amplified from genomic DNA; VL of C1, as the VL of m7; mouse kappa light chain constant region, amplified from BALB/c genomic DNA; Plasmids pVH-C1-mIgG3 and pVL-C1-mouse kappa; also called mIgG3-C1; source: CHO-K1, stably transfected; culture supernatant, and purified (protein G-Sepharose)
B7: in experiment [2], the Ka is 2.33e+07 M⁻¹ and the Kd came out at 31.1 nM.

B8: mouse IgG2b-C1 (PfMSP1_(19)-specific recombinant mouse IgG2b) (antibody, V domains shown)
VH: B5 VH
VL: B5 VL
notes: VH of C1 (anti-PfMSP1_19), as the VH of m7; mouse IgG2b heavy-chain constant region, amplified from genomic DNA; VL of C1, as the VL of m7; mouse kappa light chain constant region, amplified from BALB/c genomic DNA; Plasmids pVH-C1-mIgG2b and pVL-C1-mouse kappa; also called mIgG2b-C1; source: CHO-K1, stably transfected; culture supernatant, and purified (protein G-Sepharose)
For B8, in experiment [2], the Ka turned out to be 1.2e+07 M⁻¹ and the Kd was 84.1 nM.

B9: mouse IgG2a-C1 (PfMSP1_(19)-specific recombinant mouse IgG2a) (antibody, V domains shown)
VH: B5 VH
VL: B5 VL
notes: VH of C1 (anti-PfMSP1_19), as the VH of m7; mouse IgG2a heavy-chain constant region, amplified from genomic DNA; VL of C1, as the VL of m7; mouse kappa light chain constant region, amplified from BALB/c genomic DNA; Plasmids pVH-C1-mIgG2a and pVL-C1-mouse kappa; also called mIgG2a-C1; source: CHO-K1, stably transfected; culture supernatant, and purified (protein G-Sepharose)
With B9, in experiment [2], the Ka turned out to be 3.32e+07 M⁻¹ and the Kd was found to be 30.1 nM.
